One block for each sequence: values may come before it.
Assays:
[1] = target: HLA-A*02:01; experiment: IEDB peptide-MHC binding, purified MHC/competitive/fluorescence; filed as Kd, often an IC50 or EC50 that approximates it; ≥ and ≤ were set here for values at or beyond the usual limits of such assays; settings: source organism: Burkholderia mallei SAVP1
[2] = target: HLA-B*57:01; experiment: as above; settings: source organism: Burkholderia mallei SAVP1
[3] = target: HLA-B*27:03; experiment: as above; settings: source organism: Burkholderia mallei SAVP1
[4] = target: HLA-B*15:01; experiment: as above
[5] = target: HLA-A*31:01; experiment: as above; settings: source organism: Burkholderia mallei SAVP1
[6] = target: HLA-A*69:01; experiment: as above; settings: source organism: Burkholderia mallei SAVP1
[7] = target: HLA-A*29:02; experiment: as above; settings: source organism: Burkholderia mallei SAVP1
[8] = target: HLA-A*02:16; experiment: as above; settings: source organism: Burkholderia mallei SAVP1
[9] = target: HLA-B*51:01; experiment: as above
[10] = target: HLA-A*02:11; experiment: as above; settings: source organism: Burkholderia mallei SAVP1
[11] = target: HLA-A*23:01; experiment: as above; settings: source organism: Burkholderia mallei SAVP1
[12] = target: HLA-A*68:02; experiment: as above; settings: source organism: Burkholderia mallei SAVP1
[13] = target: HLA-B*15:17; experiment: as above; settings: source organism: Burkholderia mallei SAVP1
[14] = target: HLA-A*03:01; experiment: as above; settings: source organism: Burkholderia mallei SAVP1
[15] = target: HLA-B*39:01; experiment: as above; settings: source organism: Burkholderia mallei SAVP1
[16] = target: HLA-B*18:01; experiment: as above; settings: source organism: Burkholderia mallei SAVP1
[17] = target: HLA-A*26:01; experiment: as above; settings: source organism: Burkholderia mallei SAVP1
[18] = target: HLA-A*02:19; experiment: as above; settings: source organism: Burkholderia mallei SAVP1
[19] = target: HLA-A*24:03; experiment: as above; settings: source organism: Burkholderia mallei SAVP1
[20] = target: HLA-A*02:12; experiment: as above; settings: source organism: Burkholderia mallei SAVP1
[21] = target: HLA-B*46:01; experiment: as above; settings: source organism: Burkholderia mallei SAVP1
[22] = target: HLA-A*02:03; experiment: as above; settings: source organism: Burkholderia mallei SAVP1
[23] = target: HLA-B*07:02; experiment: as above
[24] = target: HLA-B*08:01; experiment: as above
[25] = target: HLA-B*58:01; experiment: as above; settings: source organism: Escherichia coli
[26] = target: HLA-A*02:50; experiment: as above
[27] = target: HLA-A*02:01; experiment: IEDB peptide-MHC binding, purified MHC/direct/fluorescence; filed as Kd, often an IC50 or EC50 that approximates it; ≥ and ≤ were set here for values at or beyond the usual limits of such assays
[28] = target: HLA-B*15:01; experiment: as above; settings: source organism: Escherichia coli
[29] = target: HLA-A*31:01; experiment: as above; settings: source organism: Escherichia coli 536
[30] = target: HLA-A*69:01; experiment: as above
[31] = target: HLA-A*01:01; experiment: as above; settings: source organism: Escherichia coli 536
[32] = target: HLA-B*07:02; experiment: as above; settings: source organism: Escherichia coli 536
[33] = target: HLA-A*03:01; experiment: as above; settings: source organism: Escherichia coli
[34] = target: HLA-A*11:01; experiment: as above; settings: source organism: Escherichia coli 536
[35] = target: HLA-B*27:05; experiment: as above; settings: source organism: Escherichia coli 536
[36] = target: HLA-A*26:01; experiment: as above; settings: source organism: Escherichia coli 536
[37] = target: HLA-B*40:01; experiment: as above; settings: source organism: Escherichia coli 536
[38] = target: HLA-B*58:01; experiment: as above; settings: source organism: Escherichia coli 536
[39] = target: HLA-B*08:01; experiment: as above; settings: source organism: Escherichia coli 536
[40] = target: HLA-A*02:11; experiment: as above; settings: source organism: Yersinia enterocolitica subsp. enterocolitica 8081
[41] = source organism: Burkholderia mallei SAVP1
[42] = source organism: Salmonella enterica subsp. enterica serovar Paratyphi B str. SPB7
[43] = source organism: Escherichia coli
[44] = source organism: Yersinia pestis

Sequence: RFNAIWFNH
- Kd [1]: ≥ 20 µM
- Kd [2]: ≥ 20 µM
- Kd [3]: ≥ 20 µM
- Kd [4, 41]: ≥ 20 µM
- Kd [5]: 0.0041 µM
- Kd [6]: ≥ 20 µM
- Kd [7]: ≥ 20 µM
- Kd [8]: ≥ 20 µM
- Kd [9, 41]: ≥ 20 µM
- Kd [10]: ≥ 20 µM
- Kd [11]: ≥ 20 µM
- Kd [12]: ≥ 20 µM
- Kd [13]: ≥ 20 µM
- Kd [14]: ≥ 20 µM
- Kd [15]: ≥ 20 µM
- Kd [16]: ≥ 20 µM
- Kd [17]: ≥ 20 µM
- Kd [18]: ≥ 20 µM
- Kd [19]: ≥ 20 µM
- Kd [20]: ≥ 20 µM
- Kd [21]: ≥ 20 µM
- Kd [22]: ≥ 20 µM

Sequence: LPLAKPMVI
- Kd [4, 42]: ≥ 20 µM
- Kd [23, 42]: 0.0624 µM
- Kd [9, 42]: 0.626 µM
- Kd [24, 42]: 0.211 µM

- Kd [23, 43]: 0.012 µM
- Kd [25]: 0.0293 µM
- Kd [24, 43]: ≥ 20 µM
Sequence: RAAPLMQSL

- Kd [26, 43]: 0.0184 µM
- Kd [27, 43]: 0.507 µM
- Kd [28]: 0.455 µM
- Kd [29]: ≥ 20 µM
- Kd ([30]; source organism: Escherichia coli 536): ≥ 20 µM
- Kd [31]: ≥ 20 µM
- Kd [32]: ≥ 20 µM
- Kd [33]: 0.799 µM
- Kd [34]: ≥ 20 µM
- Kd [35]: ≥ 20 µM
- Kd [36]: ≥ 20 µM
- Kd [37]: ≥ 20 µM
- Kd [38]: ≥ 20 µM
- Kd [39]: ≥ 20 µM
Sequence: RMYGISPWT

Sequence: FLRFGDFKL
- Kd ([26]; source organism: Yersinia pestis Nepal516): ≤ 0.0001 µM
- Kd [27, 44]: 0.0055 µM
- Kd [30, 44]: 18.3 µM
- Kd [40]: 0.104 µM
